Reference: patent US20100297683A1 (QUEEN MARY AND WESTFIELD COLLEGE, published 2010)
Ends that are not written are not given here.

Tests used:
[1] = system: T1, AAPVAAK cross-linked dextran hydrogel
T1 sequence: AAPVAAK

[2] = system: T2, AAPFFK cross-linked dextran hydrogel
T2 sequence: AAPFFK

[3] = target: T3, AAPFFK cross-linked dextran hydrogel
T3 chain: AAPFFK

[4] = target: T4, Ala-Ala-Pro-Val-Ala-Ala-Lys-NH2 (AAPVAAK) peptide cross-linker in acrylamide hydrogel film (not fully specified)
T4 chain: AAPVAAK

[5] = target: T5, AAPVAAK cross-linked dextran hydrogel (not fully specified)
T5 chain: AAPVAAK

[6] = target: T6, BSA (UniProt P02769 25-607); assay: QCM admittance (mass, delta XL) on peptide hydrogel film
T6 construct: Control protein added instead of HNE
T6 sequence (P02769 25-607 limits assumed): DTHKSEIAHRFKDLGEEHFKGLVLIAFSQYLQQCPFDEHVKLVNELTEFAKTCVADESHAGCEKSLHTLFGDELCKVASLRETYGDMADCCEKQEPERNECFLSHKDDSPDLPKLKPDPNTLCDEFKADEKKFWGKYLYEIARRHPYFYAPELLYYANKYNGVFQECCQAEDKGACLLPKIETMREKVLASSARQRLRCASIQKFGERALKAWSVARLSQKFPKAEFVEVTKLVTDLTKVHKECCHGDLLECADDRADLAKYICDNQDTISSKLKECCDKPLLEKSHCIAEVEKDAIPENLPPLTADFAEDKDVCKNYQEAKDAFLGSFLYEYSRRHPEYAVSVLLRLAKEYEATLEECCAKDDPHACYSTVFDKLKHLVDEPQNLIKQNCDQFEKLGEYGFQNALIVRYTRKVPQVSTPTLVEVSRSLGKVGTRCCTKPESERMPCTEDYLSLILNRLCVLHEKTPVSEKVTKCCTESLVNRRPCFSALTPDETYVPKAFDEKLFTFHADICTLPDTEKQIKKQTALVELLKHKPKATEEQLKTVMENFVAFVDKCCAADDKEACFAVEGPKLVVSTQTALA

## cathepsin G
[1]
  degradation of hydrogel film monitored by QCM, 100 mU cathepsin G: slow degradation was observed, indicating some minor cross-sensitivity
[2]
  degradation of hydrogel film monitored by QCM resonant frequency, 100 mU/ml cathepsin G: Cathepsin G caused the films to degrade resulting in an increase in resonant frequency

B1: Human Neutrophil Elastase (protein)
chain: IVGGRRARPHAWPFMVSLQLRGGHFCGATLIAPNFVMSAAHCVANVNVRAVRVVLGAHNLSRREPTRQVFAVQRIFENGYDPVNLLNDIVILQLNGSATINANVQVAQLPAQGRRLGNGVQCLAMGWGLLGRNRGIASVLQELNVTVVTSLCRRSNVCTLVRGRQAGVCFGDSGSPLVCNGLIHGIASFVRGGCASGLYPDAFAPVAQFVNWIDSIIQ
[3]
  degradation of hydrogel film monitored by QCM, 10 U/ml HNE: There was no noticeable degradation of the hydrogel when HNE was introduced
[4]
  change of QCM parameter delta XL (mass of the hydrogel film) after addition of HNE: The gradual decrease in mass was due to the breakage of peptide bonds and the subsequent dissolution of the film resulting in mass loss from the surface of the crystal
  change of QCM resistive component delta R after addition of HNE: The gradual decrease was caused by the cleavage of peptide bonds and subsequent dissolution of the hydrogel by the action of the enzyme human neutrophil elastase
[5]
  degradation of hydrogel film monitored by QCM resonance frequency (25% cross-linked film): After 10 min of enzyme exposure, the film was completely degraded
  degradation of hydrogel film monitored by QCM resonance frequency (50% cross-linked, reduced film): the rate of degradation increased when the HNE concentration was increased

B2: Ala-Ala-Pro-Val-Ala-Ala-Lys-NH2 (AAPVAAK) peptide cross-linker in acrylamide hydrogel film (peptide)
peptide: AAPVAAK-NH2
modifications: not fully specified (N-terminus); printed as Ala-Ala-Pro-Val-Ala-Ala-Lys-NH2; also: both ends capped with acryloyl group, copolymerised with acrylamide into hydrogel film
[6]
  binding result: no binding
